Measurements taken from patent publication EP3088890B1 (Chugai Seiyaku Kabushiki Kaisha, dated 2020).

B1: GT165 antibody (antibody, IgG1, V domains shown)
VH: QVQLQQSGAELVGPGASVKISCKAFGYTFTNHHINWVKQRPGQGLDWIGYINPYNDYTNYNQKFKGKATLTVDKSSSTAYMELSSLTSEDSAVYYCARSDPAWFAYWGQGTLVTVSA
VL: DIQMTQSPSSLSASLGGKVTITCKASQDINKNIAWYQHKPGKGPRLLIWYTYTLQPGIPSRFSGSGSGRDYSFSISNLEPEDIATYYCLQYDNLPFTFGTGTKLEIKR
B2: GT607 antibody (antibody, IgG1, V domains shown)
VH: EVQLVESGGDVVRPGGSLKLSCAASGFTFSSYGMSWVRQLPDKRLEWVASVGNGGSYRYYPENLKGRFTISRDNTKNTLYLQISGLKSEDTAIYYCARRGAFPYFDVWGAGTTVTVSS
VL: QIVLTQSPAIMSASPGEKVTLACSASSSVTYMHWYQQKSGTSPKRWIYETSKLASGVPPRFSGSGSGTSYSLTISTMEAEDAATYYCQQWSSNPLTFGAGTKLELKR

Assays:
[1] = target: GPC3 core (sGPC3-His) protein (human) (UniProt P51654); experiment: competition ELISA on plate-bound sGPC3; unlabeled GT165 (100-fold) against competitor biotin-labeled GT114; signal of the labeled antibody
[2] = target: GPC3 core (sGPC3-His) protein (human) (UniProt P51654); experiment: competition ELISA on plate-bound sGPC3; unlabeled GT165 (100-fold) against competitor biotin-labeled GT607; signal of the labeled antibody
[3] = target: GPC3 core (sGPC3-His) protein (human) (UniProt P51654); experiment: competition ELISA on plate-bound sGPC3; unlabeled GT607 (100-fold) against competitor biotin-labeled GT607
[4] = target: GPC3 core (sGPC3-His) protein (human) (UniProt P51654); experiment: competition ELISA on plate-bound sGPC3; unlabeled GT607 (100-fold) against competitor biotin-labeled GT114; signal of the labeled antibody

Sequence of GPC3 core (sGPC3-His) protein (human) (P51654 25-563 S495A/S509A): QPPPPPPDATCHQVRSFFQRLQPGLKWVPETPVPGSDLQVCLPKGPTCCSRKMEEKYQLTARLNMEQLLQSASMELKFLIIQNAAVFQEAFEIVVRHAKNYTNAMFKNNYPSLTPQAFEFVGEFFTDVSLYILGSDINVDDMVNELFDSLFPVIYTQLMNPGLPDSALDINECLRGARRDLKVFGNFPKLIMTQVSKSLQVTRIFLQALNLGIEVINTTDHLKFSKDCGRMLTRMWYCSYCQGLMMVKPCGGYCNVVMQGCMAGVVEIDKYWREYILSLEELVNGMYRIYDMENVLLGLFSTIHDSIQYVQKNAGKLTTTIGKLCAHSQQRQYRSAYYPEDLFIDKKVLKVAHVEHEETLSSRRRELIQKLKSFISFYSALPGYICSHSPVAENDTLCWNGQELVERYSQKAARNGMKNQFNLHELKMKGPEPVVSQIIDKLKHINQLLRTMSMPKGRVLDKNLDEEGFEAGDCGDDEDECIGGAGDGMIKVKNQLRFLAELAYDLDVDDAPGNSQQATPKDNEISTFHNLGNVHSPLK

| Binder | O.D. 450 [1] [O.D. 450] | O.D. 450 [2] [O.D. 450] | Inhibitory effect (%) [3] [%] | O.D. 450 [4] [O.D. 450] |
| --- | --- | --- | --- | --- |
| B1 | 2.28 | 1.25 |  |  |
| B2 |  |  | 94 | 1.13 |
